Measurements: the supplement of paper PMC10567573

B1: MNAT1 (parent)
chain: LEEALYEYQPLQIETYGPHVPELE
B2: FBXO39 (parent)
chain: PSRVHASEVESAVWYVKKFGRYLE
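Note: lentivirally expressed fusions sorted by FACS into six bins by GFP to DsRed ratio, PSI derived from sequencing read proportions per bin multiplied by bin number.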

Variants of: B1
Experiment: protein stability index of a GFP-peptide fusion (GPS, HEK-293T) (PSI 1-6); higher = more stable
Details: c terminus: a fixed tail appended
With LEEALYEYQPLQIETYGPHVPELD [E24D] the protein stability index was 3.39. Work on LEEALYEYQPLQIETYGPHVPELC [E24C] yielded a protein stability index of 1.76. LEEALYEYQPLQIETYGPHVPELT [E24T] showed a protein stability index of 2.67. For LEEALYEYQPLQIETYGPHVPELK [E24K], the protein stability index was 2.53. LEEALYEYQPLQIETYGPHVPELA [E24A] showed a protein stability index of 2.84. LEEALYEYQPLQIETYGPHVPELN [E24N] gave a protein stability index of 2.35. Work on LEEALYEYQPLQIETYGPHVPELP [E24P] yielded a protein stability index of 1.93. With LEEALYEYQPLQIETYGPHVPELY [E24Y] the protein stability index was 1.39. In the case of LEEALYEYQPLQIETYGPHVPELF [E24F], the protein stability index is reported as 1.91. For LEEALYEYQPLQIETYGPHVPELW [E24W], the protein stability index was 1.45. LEEALYEYQPLQIETYGPHVPELM [E24M] showed a protein stability index of 2.14. In the case of LEEALYEYQPLQIETYGPHVPELI [E24I], the protein stability index is reported as 1.88. LEEALYEYQPLQIETYGPHVPELH [E24H] gave a protein stability index of 2.25. Variant LEEALYEYQPLQIETYGPHVPELL [E24L] has a protein stability index of 2.19. With LEEALYEYQPLQIETYGPHVPELV [E24V] the protein stability index was 2.19. Work on LEEALYEYQPLQIETYGPHVPELR [E24R] yielded a protein stability index of 1.95. With LEEALYEYQPLQIETYGPHVPELQ [E24Q] the protein stability index was 2.18. With LEEALYEYQPLQIETYGPHVPELS [E24S] the protein stability index was 2.54. Variant LEEALYEYQPLQIETYGPHVPELG [E24G] has a protein stability index of 2.03. LEEALYEYQPLQIETYGPHVPEWE [L23W] gave a protein stability index of 2.84. With LEEALYEYQPLQIETYGPHVPEVE [L23V] the protein stability index was 2.81. With LEEALYEYQPLQIETYGPHVPEYE [L23Y] the protein stability index was 2.89. With LEEALYEYQPLQIETYGPHVPESE [L23S] the protein stability index was 3.48. For LEEALYEYQPLQIETYGPHVPEPE [L23P], the protein stability index was 3.19. Variant LEEALYEYQPLQIETYGPHVPETE [L23T] has a protein stability index of 2.6. LEEALYEYQPLQIETYGPHVPEME [L23M] showed a protein stability index of 3.2. In the case of LEEALYEYQPLQIETYGPHVPENE [L23N], the protein stability index is reported as 3.34. LEEALYEYQPLQIETYGPHVPERE [L23R] showed a protein stability index of 3.99. LEEALYEYQPLQIETYGPHVPEQE [L23Q] gave a protein stability index of 2.98.

Variants of: B2
Experiment: as above
Details: c terminus: a fixed tail appended
Work on FSRVHASEVESAVWYVKKFGRYLE [P1F] yielded a protein stability index of 1.66. RSRVHASEVESAVWYVKKFGRYLE [P1R] showed a protein stability index of 1.71. ISRVHASEVESAVWYVKKFGRYLE [P1I] gave a protein stability index of 1.83. Work on TSRVHASEVESAVWYVKKFGRYLE [P1T] yielded a protein stability index of 2.01. VSRVHASEVESAVWYVKKFGRYLE [P1V] gave a protein stability index of 1.7. Work on YSRVHASEVESAVWYVKKFGRYLE [P1Y] yielded a protein stability index of 1.63. ESRVHASEVESAVWYVKKFGRYLE [P1E] showed a protein stability index of 1.84. In the case of KSRVHASEVESAVWYVKKFGRYLE [P1K], the protein stability index is reported as 2.21. Variant SSRVHASEVESAVWYVKKFGRYLE [P1S] has a protein stability index of 1.52. NSRVHASEVESAVWYVKKFGRYLE [P1N] gave a protein stability index of 1.72. In the case of CSRVHASEVESAVWYVKKFGRYLE [P1C], the protein stability index is reported as 1.82. Variant MSRVHASEVESAVWYVKKFGRYLE [P1M] has a protein stability index of 1.87. Variant ASRVHASEVESAVWYVKKFGRYLE [P1A] has a protein stability index of 2.45. For LSRVHASEVESAVWYVKKFGRYLE [P1L], the protein stability index was 2.13. HSRVHASEVESAVWYVKKFGRYLE [P1H] showed a protein stability index of 2.06. In the case of QSRVHASEVESAVWYVKKFGRYLE [P1Q], the protein stability index is reported as 3.14. WSRVHASEVESAVWYVKKFGRYLE [P1W] showed a protein stability index of 2.5. DSRVHASEVESAVWYVKKFGRYLE [P1D] gave a protein stability index of 2.08. With GSRVHASEVESAVWYVKKFGRYLE [P1G] the protein stability index was 2.83. Work on PSEVHASEVESAVWYVKKFGRYLE [R3E] yielded a protein stability index of 2.04. PSLVHASEVESAVWYVKKFGRYLE [R3L] showed a protein stability index of 1.72. In the case of PSDVHASEVESAVWYVKKFGRYLE [R3D], the protein stability index is reported as 2.9. PSMVHASEVESAVWYVKKFGRYLE [R3M] gave a protein stability index of 2.54. PSTVHASEVESAVWYVKKFGRYLE [R3T] gave a protein stability index of 3.32. PSYVHASEVESAVWYVKKFGRYLE [R3Y] showed a protein stability index of 1.58. Work on PSAVHASEVESAVWYVKKFGRYLE [R3A] yielded a protein stability index of 2.04. Work on PSCVHASEVESAVWYVKKFGRYLE [R3C] yielded a protein stability index of 1.88. In the case of PSQVHASEVESAVWYVKKFGRYLE [R3Q], the protein stability index is reported as 2.46. PSWVHASEVESAVWYVKKFGRYLE [R3W] gave a protein stability index of 2.4. Work on PSKVHASEVESAVWYVKKFGRYLE [R3K] yielded a protein stability index of 1.83. Work on PSPVHASEVESAVWYVKKFGRYLE [R3P] yielded a protein stability index of 2.49. For PSFVHASEVESAVWYVKKFGRYLE [R3F], the protein stability index was 1.49. In the case of PSIVHASEVESAVWYVKKFGRYLE [R3I], the protein stability index is reported as 2.18. Work on PSHVHASEVESAVWYVKKFGRYLE [R3H] yielded a protein stability index of 1.98. In the case of PSGVHASEVESAVWYVKKFGRYLE [R3G], the protein stability index is reported as 2.29. Variant PSSVHASEVESAVWYVKKFGRYLE [R3S] has a protein stability index of 2.1. PSNVHASEVESAVWYVKKFGRYLE [R3N] showed a protein stability index of 2.19. Work on PSVVHASEVESAVWYVKKFGRYLE [R3V] yielded a protein stability index of 2.36. Work on PSREHASEVESAVWYVKKFGRYLE [V4E] yielded a protein stability index of 2.52. PSRAHASEVESAVWYVKKFGRYLE [V4A] gave a protein stability index of 2.29. With PSRDHASEVESAVWYVKKFGRYLE [V4D] the protein stability index was 2.52. PSRFHASEVESAVWYVKKFGRYLE [V4F] gave a protein stability index of 1.54. In the case of PSRIHASEVESAVWYVKKFGRYLE [V4I], the protein stability index is reported as 2.39. In the case of PSRCHASEVESAVWYVKKFGRYLE [V4C], the protein stability index is reported as 1.49. PSRHHASEVESAVWYVKKFGRYLE [V4H] showed a protein stability index of 2.25. For PSRGHASEVESAVWYVKKFGRYLE [V4G], the protein stability index was 2.19. With PSRKHASEVESAVWYVKKFGRYLE [V4K] the protein stability index was 1.63. PDRVHASEVESAVWYVKKFGRYLE [S2D] showed a protein stability index of 2.19. PERVHASEVESAVWYVKKFGRYLE [S2E] showed a protein stability index of 2.29. Variant PMRVHASEVESAVWYVKKFGRYLE [S2M] has a protein stability index of 2.08. PYRVHASEVESAVWYVKKFGRYLE [S2Y] showed a protein stability index of 2.48. PWRVHASEVESAVWYVKKFGRYLE [S2W] showed a protein stability index of 1.89. With PIRVHASEVESAVWYVKKFGRYLE [S2I] the protein stability index was 2.33. PKRVHASEVESAVWYVKKFGRYLE [S2K] gave a protein stability index of 2.67. PQRVHASEVESAVWYVKKFGRYLE [S2Q] gave a protein stability index of 2.18. PFRVHASEVESAVWYVKKFGRYLE [S2F] gave a protein stability index of 1.64. Variant PLRVHASEVESAVWYVKKFGRYLE [S2L] has a protein stability index of 1.63. In the case of PGRVHASEVESAVWYVKKFGRYLE [S2G], the protein stability index is reported as 1.94. In the case of PHRVHASEVESAVWYVKKFGRYLE [S2H], the protein stability index is reported as 1.76. With PTRVHASEVESAVWYVKKFGRYLE [S2T] the protein stability index was 2.31. For PPRVHASEVESAVWYVKKFGRYLE [S2P], the protein stability index was 2.05. PARVHASEVESAVWYVKKFGRYLE [S2A] showed a protein stability index of 1.71. PRRVHASEVESAVWYVKKFGRYLE [S2R] gave a protein stability index of 1.82. With PNRVHASEVESAVWYVKKFGRYLE [S2N] the protein stability index was 2.51. Variant PVRVHASEVESAVWYVKKFGRYLE [S2V] has a protein stability index of 1.46.
